Source: article PMC13199644, “Optimized Quantitative Bacterial Two-Hybrid (qB2H) for Protein–Protein Interaction Assessment” (Computational and Structural Biotechnology Journal, 2026)

Tested on: Spo22p
Assay: qB2H v3 fluorescence, Spo22p vs ECM11
Type: cell-based, Saccharomyces cerevisiae
Conditions: Acella, qB2H v3, cI-Spo22p 786-886, IPTG(200µM) + ATC (200ng/mL)
Experimental: Precultures of untransformed (for intrinsic fluorescence evaluation) and transformed SB39 cells were diluted (3 μl into 300 μl of fresh medium) in 2-ml microtubes and grown in ThermoMixer C (Eppendorf; 37 °C at 900 rpm) for 2 h. Cultures with an OD600 of approximately 0.5 were then mixed with 100 μl of the same medium containing 4× inducer concentration. […] The induced cultures were grown overnight at 18 °C, diluted (1 μl) in freshly filtered (0.22 μm) phosphate-buffered saline buffer (1 ml per OD unit), and analyzed using guava easyCyte HT (488-nm blue laser). The gating for event analysis was set to minimize background noise (fewer than 100 gated events per 10 μl of sterile phosphate-buffered saline). Ten thousand events were collected per culture, and the MFI was recorded. To allow comparison across independent experiments, SB39 cells cotransformed with VN519 (pBRα-rpoA-ip3_mut3A) and VN550 (pAC-cI_E34P-ASF1A_Term_f1-pOL2-62_L-eGFP-KanR) or VN517 (pBRα-rpoA-ip3) and VN550 were included as internal controls. […]
MFI(x) represents the MFI of a given condition or culture. MFI(low) corresponds to the fluorescence produced by SB39 cells cotransformed with VN519 and VN550, indicating no detectable interaction (Kd > 100,000 nM). […]
Interactions involving distinct protein domains and folding variants were assessed using qB2H systems v1, v2, and v3. […]

B1: ECM11: Q04110 1-302, Saccharomyces cerevisiae (protein, UniProt Q04110 1-302, looked up)
Protein ECM11: MTVIKTEPTTEVTLYSPPSKESLSKDDAHRKKQNNKPPSSINSRSGPNKHKLAAKAPEKKINNTDKQDLSAFLLNPSLIVKPSESKKKENIVAYNDTPGIKTEHTAFQPLTPISKKRALKEKAASEKCDSFDLSRDEKPYIQKKSKTLSSVTEINSSEYKLSLNGENTSSPAKEKSQEPIENPGSYQKTRNYLFEKPDPLDTCLQDYSSMLPSNVAEEDQEYFISVADSTLEEWTNKGQEIIDQQFQLYQEIIKKRIELSYKFKGIISVINDRADALEEQGQQLEGKIKKVKTLANEILNII
Norm. MFI: 7.70%
